Each block holds one molecule with its values, some of them ahead of it.
Legend:
[1] = target: T1, Y2-GPCR (Homo sapiens, UniProt P49146); test: competitive binding assay against PYY22-36 on Y2-GPCR
T1 sequence (P49146 1-381): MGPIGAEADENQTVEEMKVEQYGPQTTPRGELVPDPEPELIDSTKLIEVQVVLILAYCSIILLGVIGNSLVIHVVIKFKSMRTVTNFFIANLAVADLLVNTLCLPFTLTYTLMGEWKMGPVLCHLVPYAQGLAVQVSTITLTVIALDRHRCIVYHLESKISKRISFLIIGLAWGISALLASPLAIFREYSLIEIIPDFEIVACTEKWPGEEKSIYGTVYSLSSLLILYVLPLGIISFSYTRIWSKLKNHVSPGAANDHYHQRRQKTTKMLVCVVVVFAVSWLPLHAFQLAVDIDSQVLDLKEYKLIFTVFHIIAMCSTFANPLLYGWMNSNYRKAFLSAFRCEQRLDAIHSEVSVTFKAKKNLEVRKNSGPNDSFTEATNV
Experimental: The peptides derived from the proteins AtRGP2, OsRGP1 and OsBiP were synthesized in 5 mg quantities at and purified to a purity of above about 90%. The peptides were tested in a competitive binding assay against PYY^22-36 for binding to the GPCR receptor.
In-vitro receptor-based screening of receptor subtypes Y1, Y2, and Y3 was performed according to protocols known in the art. (Munoz et al., Mol. Cell. Endocrinol. 107, 77 (1995), Fuhlendorf et al., PNAS 87, 182 (1990)) Screening of OsBiP, ZmRGP1 and AtRGP1 was conducted on Y2-GPCR as described above using known methods and activity was measured as the percentage of inhibition of binding of the endogenous ligand PYY^22-36 sequence. The PYY^22-36 sequence was used as a positive control. Of the peptides tested, the one derived from AtRGP1 protein was able to inhibit binding of PYY^22-36 by 20-40% when 10 μM concentration of both the PYY^22-36 and OsBiP peptide were used in the binding assay. […] In vivo tissue-based screening on cultures of rat colon cells can be carried out according to known protocols, such as described in Dumont et al., Eur. J. Pharmacol. 238, 37 (1993).

[2] = target: T2, Y2 GPCR receptor; test: competitive receptor binding assay on Y2-GPCR against PYY22-36, 10 µM of both peptides
T2 sequence (P49146 whole entry, species assumed, looked up): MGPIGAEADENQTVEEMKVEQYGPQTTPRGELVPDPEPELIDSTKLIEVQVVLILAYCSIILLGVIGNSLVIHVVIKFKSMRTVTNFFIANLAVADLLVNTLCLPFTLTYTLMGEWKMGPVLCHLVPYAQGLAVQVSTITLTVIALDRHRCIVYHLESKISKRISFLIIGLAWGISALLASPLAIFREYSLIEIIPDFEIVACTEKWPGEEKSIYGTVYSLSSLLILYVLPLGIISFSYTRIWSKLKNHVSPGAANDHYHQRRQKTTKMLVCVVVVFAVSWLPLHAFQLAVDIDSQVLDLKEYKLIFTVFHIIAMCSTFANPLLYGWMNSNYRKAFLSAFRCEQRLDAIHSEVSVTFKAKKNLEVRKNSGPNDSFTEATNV

[3] = target: T3, CCK-B GPCR receptor (human) (UniProt P32239); test: competitive receptor binding assay against CCK-8 on CCK-B receptor, synthetic peptide at 10 µM
T3 sequence (looked up): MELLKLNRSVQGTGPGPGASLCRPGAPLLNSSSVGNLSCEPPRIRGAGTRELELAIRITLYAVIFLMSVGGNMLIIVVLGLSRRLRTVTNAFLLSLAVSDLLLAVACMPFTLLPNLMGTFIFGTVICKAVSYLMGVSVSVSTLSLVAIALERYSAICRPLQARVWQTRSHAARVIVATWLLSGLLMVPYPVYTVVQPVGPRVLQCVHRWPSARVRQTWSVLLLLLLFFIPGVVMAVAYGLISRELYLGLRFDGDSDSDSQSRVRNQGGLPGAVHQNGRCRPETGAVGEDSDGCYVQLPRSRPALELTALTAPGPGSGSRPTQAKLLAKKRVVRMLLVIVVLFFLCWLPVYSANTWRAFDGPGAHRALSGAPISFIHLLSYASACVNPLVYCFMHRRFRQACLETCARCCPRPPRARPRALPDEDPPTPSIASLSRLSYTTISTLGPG

binding to the Y2 receptor ([1]; same technique, result in words): shown to bind the Y2 receptor
Molecule: FDGVDFSEPLTRARF [OsBIP]

percent inhibition of binding of CCK-8 [3]: 5%
B2: Oryza sativa oryzacystatin hydrolyzed with trypsin - synthetic peptide 3 (…) (peptide)
peptide: PWMDFKELQEFK

More lines, now with the values behind:

Molecule: YSCRYFGYLVSKKKY (listed as Arabidopsis thaliana) [AtRGP1, peptide derived from Arabidopsis thaliana amylogenin protein RGP]
percentage of inhibition of binding of the endogenous ligand PYY22-36 ([1]; 10 μM concentration of both PYY22-36 and test peptide, Y2-GPCR): 20-40%

B1: AtRGP2 peptide fragment (peptide derived from Arabidopsis thaliana amylogenin protein RGP) (peptide)
peptide: YSCRYFGYLVSKKKY
percent inhibition of binding of PYY22-36 [2]: 20 to 40%
